According to PMC10591846:
pIC50: −log10 of the molar value.

Target: GST-Pirh2 (construct of Figures S5 and S12 not stated) (human) (UniProt Q96PM5)
Assay: AlphaScreen or HTRF

Chain of GST-Pirh2 (construct of Figures S5 and S12 not stated) (human) (Q96PM5 whole entry): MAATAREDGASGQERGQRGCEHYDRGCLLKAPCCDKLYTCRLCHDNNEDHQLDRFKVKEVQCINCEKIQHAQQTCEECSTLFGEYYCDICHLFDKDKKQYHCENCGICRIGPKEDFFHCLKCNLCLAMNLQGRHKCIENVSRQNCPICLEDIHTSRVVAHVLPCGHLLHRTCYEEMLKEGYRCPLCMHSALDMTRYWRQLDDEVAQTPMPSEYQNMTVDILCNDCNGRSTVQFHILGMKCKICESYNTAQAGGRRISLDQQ

B. subtilis SsrA tag (peptide)
pIC50: 6.33
